In publication PMC8893695, “The microprotein Nrs1 rewires the G1/S transcriptional machinery during nitrogen limitation in budding yeast” (PLoS Biology, 2022):

What was measured:
[1] = molecular target: T1, ^FLAGSwi4-Swi6 complex (S. cerevisiae, UniProt P25302 1-1093; P09959 1-803); assay: co-IP; recombinant ^FLAGSwi4-Swi6-^GSTWhi5 complexes (0.1 ug ^GSTWhi5) incubated with 0.1, 0.2 and 0.5 ug His6-tagged Nrs1 (4, 8 and 20 Nrs1:Whi5 molar ratio), captured on anti-FLAG beads; blots with anti-GST and anti-HIS6; conditions: both partners purified
T1 construct: Swi4, S. cerevisiae; Swi6, S. cerevisiae; also called SBF; recombinant SBF; source: baculovirus-infected insect cells, purified (anti-FLAG M2 resin, eluted with FLAG peptide)
T1 sequence (P25302 whole entry, chain 1 of 2): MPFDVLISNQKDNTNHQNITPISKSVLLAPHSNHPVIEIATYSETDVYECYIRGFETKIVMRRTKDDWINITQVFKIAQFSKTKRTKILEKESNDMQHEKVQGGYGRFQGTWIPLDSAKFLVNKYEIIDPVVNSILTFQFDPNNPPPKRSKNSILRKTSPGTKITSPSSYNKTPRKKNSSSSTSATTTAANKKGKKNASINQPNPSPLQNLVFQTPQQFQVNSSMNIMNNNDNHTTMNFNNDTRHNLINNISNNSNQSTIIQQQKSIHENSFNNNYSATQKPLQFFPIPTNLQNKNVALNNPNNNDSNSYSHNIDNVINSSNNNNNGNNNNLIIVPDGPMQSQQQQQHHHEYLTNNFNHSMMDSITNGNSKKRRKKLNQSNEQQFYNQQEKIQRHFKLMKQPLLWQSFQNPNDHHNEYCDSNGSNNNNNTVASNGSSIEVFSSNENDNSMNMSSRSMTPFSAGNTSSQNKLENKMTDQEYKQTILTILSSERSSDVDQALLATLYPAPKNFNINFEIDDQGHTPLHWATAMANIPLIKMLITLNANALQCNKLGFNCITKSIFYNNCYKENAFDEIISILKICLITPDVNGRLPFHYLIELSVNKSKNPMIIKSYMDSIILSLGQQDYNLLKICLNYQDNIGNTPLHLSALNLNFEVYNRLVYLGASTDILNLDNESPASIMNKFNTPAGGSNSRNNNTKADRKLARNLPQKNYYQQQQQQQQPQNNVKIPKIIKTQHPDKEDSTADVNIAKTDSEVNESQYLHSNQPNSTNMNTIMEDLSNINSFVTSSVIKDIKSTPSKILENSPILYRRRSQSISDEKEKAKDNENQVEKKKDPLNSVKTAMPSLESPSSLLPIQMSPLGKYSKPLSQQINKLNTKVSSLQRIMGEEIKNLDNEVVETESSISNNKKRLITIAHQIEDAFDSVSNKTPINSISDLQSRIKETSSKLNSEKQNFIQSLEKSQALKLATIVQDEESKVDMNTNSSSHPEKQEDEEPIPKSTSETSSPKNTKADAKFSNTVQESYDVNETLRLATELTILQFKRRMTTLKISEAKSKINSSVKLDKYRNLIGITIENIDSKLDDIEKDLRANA
T1 sequence (P09959 whole entry, chain 2 of 2): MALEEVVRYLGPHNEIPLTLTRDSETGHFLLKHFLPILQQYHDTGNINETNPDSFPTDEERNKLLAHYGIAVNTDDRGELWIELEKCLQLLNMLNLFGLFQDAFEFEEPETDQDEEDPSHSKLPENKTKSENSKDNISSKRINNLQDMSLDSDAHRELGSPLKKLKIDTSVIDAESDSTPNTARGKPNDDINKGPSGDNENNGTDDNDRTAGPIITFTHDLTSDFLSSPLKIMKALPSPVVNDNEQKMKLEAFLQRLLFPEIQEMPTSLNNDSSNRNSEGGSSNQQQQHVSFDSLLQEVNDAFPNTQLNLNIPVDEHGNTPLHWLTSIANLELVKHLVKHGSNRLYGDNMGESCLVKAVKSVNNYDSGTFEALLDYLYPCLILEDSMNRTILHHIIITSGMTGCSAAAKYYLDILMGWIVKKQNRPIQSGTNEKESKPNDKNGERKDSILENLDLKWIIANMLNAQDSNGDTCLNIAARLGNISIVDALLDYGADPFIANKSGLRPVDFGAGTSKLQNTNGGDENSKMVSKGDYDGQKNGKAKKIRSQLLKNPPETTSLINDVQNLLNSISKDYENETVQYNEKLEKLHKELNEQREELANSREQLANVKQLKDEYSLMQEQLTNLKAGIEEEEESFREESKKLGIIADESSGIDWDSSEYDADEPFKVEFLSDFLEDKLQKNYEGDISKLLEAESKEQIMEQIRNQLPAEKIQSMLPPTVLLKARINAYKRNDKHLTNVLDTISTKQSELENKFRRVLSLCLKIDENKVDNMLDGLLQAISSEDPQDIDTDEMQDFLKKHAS

[2] = molecular target: T1, ^FLAGSwi4-Swi6 complex; assay: pull-down; recombinant ^HAWhi5 or ^GSTNrs1 titrated into preformed ^FLAGSwi4-Swi6-^GSTNrs1 or ^FLAGSwi4-Swi6-^HAWhi5 complexes immobilised on anti-FLAG resin; immunoblot and Coomassie; conditions: both partners purified

B1: ^GSTWhi5 (natural protein, S. cerevisiae, UniProt Q12416 1-295, looked up)
chain: MSLRTPKRSRTSDEQEQEQEQEQVQNPDTHVNNEHQQRPGPTTLLSTPVRLKNGFGTPSPPSPPGITKSITKSRRRPSTTSLQGIFMSPVNKRRVGITAHGRVYDHNDDGHESESEDDENEEENENQKKYDGHVSMPLLPPTTPKSRRSEVFLSPSPRLRSPPTAARRSTGERPIREISHTLRTRLNYALVKLQNGWTDKTLPELETELAPAVQTPPRRYHNRFPDSADAGTSAHTAFLQALGGHPPREEATAVETLMLLSSPTKKQQHRPVPATSAGEPTDETEPESDTEVETS
notes: Whi5, S. cerevisiae; also called recombinant GST-tagged Whi5; source: recombinant
Does B1 bind [1]?
Result: binds

B2: recombinant ^HAWhi5 (natural protein, S. cerevisiae, UniProt Q12416 1-295, looked up)
chain: MSLRTPKRSRTSDEQEQEQEQEQVQNPDTHVNNEHQQRPGPTTLLSTPVRLKNGFGTPSPPSPPGITKSITKSRRRPSTTSLQGIFMSPVNKRRVGITAHGRVYDHNDDGHESESEDDENEEENENQKKYDGHVSMPLLPPTTPKSRRSEVFLSPSPRLRSPPTAARRSTGERPIREISHTLRTRLNYALVKLQNGWTDKTLPELETELAPAVQTPPRRYHNRFPDSADAGTSAHTAFLQALGGHPPREEATAVETLMLLSSPTKKQQHRPVPATSAGEPTDETEPESDTEVETS
notes: Whi5, S. cerevisiae; source: recombinant
Does B2 bind [2]?
Result: binds
